Patent publication US20110110945A1, “Immunoglobulin Fusion Proteins and Methods of Making” (TransTech Pharma, Inc., priority 2007, published 2011)
Entries after “also recorded” stand apart in the source; their conditions may differ.

Experiments:
[1] = target: T1, amyloid-beta (Amyloid Beta (1-40)) (Homo sapiens, UniProt P05067); experiment: In vitro ligand binding assay (ELISA), immobilized amyloid-beta; conditions: ligand 5 micrograms per well; dilutions of initial fusion protein solution; FIG. 7
T1 construct: Amyloid Beta (1-40) from Biosource; purchased Biosource
Experimental: For example, the fusion protein may be used in a binding assay to identify potential ligands that bind to the non-immunoglobulin protein. In one example embodiment of such a binding assay, a known ligand may coated onto a solid substrate (e.g., Maxisorb plates) at a biologically relevant concentration (e.g., about 5 micrograms per well), where each well contains a total volume of about 100 microliters (μL). The plates may be incubated at 4° C. overnight to allow the ligand to bind to the substrate. Alternatively, shorter incubation periods at higher temperature (e.g., room temperature) may be used. After a period of time to allow for the ligand to bind to the substrate, the assay wells may be aspirated and a blocking buffer (e.g., 1% BSA in 50 mM imidizole buffer, pH 7.2) may be added to block nonspecific binding. […] The fusion protein bound to the immobilized ligand may be detected in a variety of ways. […] The bound complex may be detected by adding a substrate for the secondary antibody complex, e.g., the alkaline phosphatase substrate, para-nitrophenylphosphate (PNPP), and measuring conversion of PNPP to para-nitrophenol (PNP) as an increase in absorbance at 405 nm. […] In the absence of ligand (i.e., coating with only BSA) there was no increase in absorbance. The binding assay of the present invention may be used to quantify ligand binding. […]

[2] = test system: mice that have AD; experiment: Mice that have Alzheimer's Disease, treated for 3 months; assay type: in vivo; conditions: versus vehicle or human IgG negative control (IgG1)
Source text: Also, fusion proteins of the present invention comprising a RAGE ligand binding site may also be used to treat reduce amyloidosis and to reduce amyloid plaques and cognitive dysfunction associated with Alzheimer's Disease (AD).

T1 sequence (P05067 672-711 limits assumed): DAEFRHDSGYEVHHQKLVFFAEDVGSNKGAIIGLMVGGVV

B1: TTP-4000: RAGE fusion protein: V and C1 domains of human RAGE (amino acids 1-251) linked to hinge-less CH2 and CH3 of human IgG1; SEQ ID NO: 16/18 (protein)
chain 1: MAAGTAVGAWVLVLSLWGAVVGAQNITARIGEPLVLKCKGAPKKPPQRLEWKLNTGRTEAWKVLSPQGGGPWDSVARVLPNGSLFLPAVGIQDEGIFRCQAMNRNGKETKSNYRVRVYQIPGKPEIVDSASELTAGVPNKVGTCVSEGSYPAGTLSWHLDGKPLVPNEKGVSVKEQTRRHPETGLFTLQSELMVTPARGGDPRPTFSCSFSPGLPRHRALRTAPIQPRVWEPVPLEEVQLVVEPEGGAVAPPSVFLFPPKPKDTLMISRTPEVTCVVVDVSHEDPEVKFNWYVDGVEVHNAKTKPREEQYNSTYRVVSVLTVLHQDWLNGKEYKCKVSNKALPAPIEKTISKAKGQPREPQVYTLPPSRDELTKNQVSLTCLVKGFYPSDIAVEWESNGQPENNYKTTPPVLDSDGSFFLYSKLTVDKSRWQQGNVFSCSVMHEALHNHYTQKSLSLSPGK
chain 2: ENITARIGEPLVLKCKGAPKKPPQRLEWKLNTGRTEAWKVLSPQGGGPWDSVARVLPNGSLFLPAVGIQDEGIFRCQAMNRNGKETKSNYRVRVYQIPGKPEIVDSASELTAGVPNKVGTCVSEGSYPAGTLSWHLDGKPLVPNEKGVSVKEQTRRHPETGLFTLQSELMVTPARGGDPRPTFSCSFSPGLPRHRALRTAPIQPRVWEPVPLEEVQLVVEPEGGAVAPPSVFLFPPKPKDTLMISRTPEVTCVVVDVSHEDPEVKFNWYVDGVEVHNAKTKPREEQYNSTYRVVSVLTVLHQDWLNGKEYKCKVSNKALPAPIEKTISKAKGQPREPQVYTLPPSRDELTKNQVSLTCLVKGFYPSDIAVEWESNGQPENNYKTTPPVLDSDGSFFLYSKLTVDKSRWQQGNVFSCSVMHEALHNHYTQKSLSLSPGK
modifications: synthetic four domain RAGE-Fc IgG fusion protein; synthetic four domain RAGE-Fc IgG fusion protein having signal sequence removed
binding to immobilized amyloid-beta (increase in absorbance at 405 nm) [1]: able to bind; also recorded: specifically interact | amyloid beta (Aβ) plaques [2]: fewer amyloid beta (Aβ) plaques | cognitive dysfunction [2]: less cognitive dysfunction
